Common to all, as to assay: BLI
(Biolayer interferometry detects binding as a change in optical thickness at a sensor tip.)

One data set addresses T1, IFIT1 (UniProt P09914 1-478).
T1 sequence: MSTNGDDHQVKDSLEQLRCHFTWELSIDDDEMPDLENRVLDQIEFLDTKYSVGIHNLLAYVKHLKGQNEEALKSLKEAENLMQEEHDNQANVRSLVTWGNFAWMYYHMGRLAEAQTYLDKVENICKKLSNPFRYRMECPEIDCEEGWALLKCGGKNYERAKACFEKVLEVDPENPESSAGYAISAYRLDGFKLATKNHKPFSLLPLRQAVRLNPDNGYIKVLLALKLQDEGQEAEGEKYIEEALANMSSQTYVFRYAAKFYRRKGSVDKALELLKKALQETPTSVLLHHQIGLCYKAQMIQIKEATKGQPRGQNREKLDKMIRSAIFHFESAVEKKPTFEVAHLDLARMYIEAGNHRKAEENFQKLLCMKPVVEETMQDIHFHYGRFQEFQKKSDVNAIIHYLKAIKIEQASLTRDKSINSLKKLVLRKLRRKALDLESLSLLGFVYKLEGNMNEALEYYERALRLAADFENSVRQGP

Data set [1] concerns the target T2, IFIT5 (UniProt Q13325 1-482).
T2 sequence: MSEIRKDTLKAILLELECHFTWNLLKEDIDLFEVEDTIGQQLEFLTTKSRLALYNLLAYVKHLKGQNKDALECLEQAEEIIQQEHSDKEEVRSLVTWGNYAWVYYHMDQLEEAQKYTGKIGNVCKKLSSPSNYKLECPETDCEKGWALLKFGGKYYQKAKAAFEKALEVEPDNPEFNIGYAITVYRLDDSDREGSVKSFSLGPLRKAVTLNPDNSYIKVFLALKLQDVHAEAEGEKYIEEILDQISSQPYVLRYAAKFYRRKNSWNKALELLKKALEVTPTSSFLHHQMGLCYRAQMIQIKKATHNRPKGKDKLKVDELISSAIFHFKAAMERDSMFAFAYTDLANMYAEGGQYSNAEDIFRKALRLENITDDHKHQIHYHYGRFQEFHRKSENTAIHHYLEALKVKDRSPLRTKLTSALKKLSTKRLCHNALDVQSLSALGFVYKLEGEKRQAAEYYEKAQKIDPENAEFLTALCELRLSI

The target of data set [2] is T2, IFIT5. The source holds these as a separate data set.

Read-outs that look alike come from different tables or passages of the source.

In general, Kd refers to the constant that tells how readily two partners part at equilibrium. For the molecule AGGAGACCGGCCUCGA (ssRNA, 5' triphosphate) [pppA-16ntRNA], in the data set with IFIT1, the Kd amounted to 23.4 nM.

Consider AGGAGACCGGCCUCGA (ssRNA, 5' NADH cap (first A is the NADH adenosine, inferred)) [NADH-16ntRNA], for which the binding result in the data set with IFIT5 [1] is reported as “binds”.

Turning to AGGAGACCGGCCUCGA (ssRNA, 5' m7GpppAm cap 1 (2'-O-methyl A1)) [m7GpppAmG-16ntRNA], binding with IFIT1 was characterised by a dissociation constant (Kd) of 44 nM.

Turning to AGGAGACCGGCCUCGA (ssRNA, 5' NAD+ cap (first A is the NAD adenosine, inferred)) [NAD+-16ntRNA], the binding result in the data set with IFIT5 [2] is “binds”.

In the data set with IFIT1, AGGAGACCGGCCUCGA (ssRNA, 5' m7GpppA cap 0) [m7GpppAG-16ntRNA (m7GpppA)] yielded an equilibrium dissociation constant (Kd) of 6.12 nM.

AGGAGACCGGCCUCGA (ssRNA, 5' GpppA cap (unmethylated; cap G not in strand)) [GpppA-16ntRNA] came in with a Kd in the data set with IFIT1 of 2.65 nM.

The values above are taken from paper PMC6913129.
